For one molecule, Kd results are on record in US20190145987A1 (UNIVERSIT LIBRE DE BRUXELLES, published 2019).

This test concerns the target human DPP6 protein (human, UniProt P42658 117-865, limits assumed). Description: affinity versus the human DPP6 protein; method not stated.

Chain of human DPP6 protein (P42658 117-865 limits assumed): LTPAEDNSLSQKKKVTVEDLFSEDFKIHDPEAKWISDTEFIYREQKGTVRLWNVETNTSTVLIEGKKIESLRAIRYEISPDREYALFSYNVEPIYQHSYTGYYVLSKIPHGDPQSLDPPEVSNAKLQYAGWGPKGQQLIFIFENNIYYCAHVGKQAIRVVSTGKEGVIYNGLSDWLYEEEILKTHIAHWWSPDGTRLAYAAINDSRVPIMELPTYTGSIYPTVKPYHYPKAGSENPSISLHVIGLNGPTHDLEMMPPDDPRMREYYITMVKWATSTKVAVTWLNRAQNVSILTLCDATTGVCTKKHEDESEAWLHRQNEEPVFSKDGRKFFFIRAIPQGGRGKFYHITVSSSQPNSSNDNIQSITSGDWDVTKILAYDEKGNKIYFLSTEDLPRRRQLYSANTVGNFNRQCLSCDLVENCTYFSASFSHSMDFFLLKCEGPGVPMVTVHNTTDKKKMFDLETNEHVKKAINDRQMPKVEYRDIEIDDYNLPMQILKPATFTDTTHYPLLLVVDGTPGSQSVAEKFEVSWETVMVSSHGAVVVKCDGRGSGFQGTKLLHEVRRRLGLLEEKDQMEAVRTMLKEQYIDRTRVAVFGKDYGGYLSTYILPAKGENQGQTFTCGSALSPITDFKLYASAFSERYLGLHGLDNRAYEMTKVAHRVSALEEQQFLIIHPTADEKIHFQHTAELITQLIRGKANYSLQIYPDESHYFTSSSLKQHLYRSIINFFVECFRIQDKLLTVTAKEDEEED

B1: nanobody 4hD29 (VHH)
VHH: QVQLQESGGGLVQPGGSLRLSCAASGFTFSSNYMTWVRQAPGKGPEWVSGINPDGSSTYYADSVKGRFTISRDNAKNTLYLQMNSLKSEDTALYKCATGAAPRIPTTLRGQGTQVTVSS
notes: also called Nb 4hD29; 4hD29 Nb
As for B1, binding was put at a Kd of 1.2 nM.
